From US20110046075A1 (published 2011) come the findings set out here.

By Kd is commonly meant a measure of binding affinity in units of concentration. By koff is commonly meant the rate constant with which the complex falls apart. For orientation: kon means the second-order rate constant of association.

The target of assay [1] is T1, Fibrinogen (Fg) from human serum (human, UniProt P02671 20-644; P02675 31-491; P02679 27-437).
T1 construct: The three-chain make-up is from general knowledge; also called Fg species
T1 sequence 1: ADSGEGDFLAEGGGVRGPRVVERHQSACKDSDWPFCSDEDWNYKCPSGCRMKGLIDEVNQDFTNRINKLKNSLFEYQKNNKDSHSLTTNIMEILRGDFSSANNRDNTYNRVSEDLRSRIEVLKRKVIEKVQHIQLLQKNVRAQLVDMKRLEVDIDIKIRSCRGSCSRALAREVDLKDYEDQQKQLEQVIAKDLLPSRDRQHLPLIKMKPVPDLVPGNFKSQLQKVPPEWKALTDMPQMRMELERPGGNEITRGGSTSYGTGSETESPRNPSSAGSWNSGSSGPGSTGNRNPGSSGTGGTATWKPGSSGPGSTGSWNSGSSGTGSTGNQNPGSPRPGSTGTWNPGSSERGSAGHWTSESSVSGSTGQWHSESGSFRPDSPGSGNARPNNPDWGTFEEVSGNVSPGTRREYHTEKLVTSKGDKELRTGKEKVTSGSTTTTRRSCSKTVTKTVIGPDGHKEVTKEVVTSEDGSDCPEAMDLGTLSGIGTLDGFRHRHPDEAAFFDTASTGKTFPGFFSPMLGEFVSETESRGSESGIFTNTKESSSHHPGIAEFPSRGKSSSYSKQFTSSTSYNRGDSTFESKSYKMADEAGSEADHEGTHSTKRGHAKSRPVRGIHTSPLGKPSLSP
T1 sequence 2: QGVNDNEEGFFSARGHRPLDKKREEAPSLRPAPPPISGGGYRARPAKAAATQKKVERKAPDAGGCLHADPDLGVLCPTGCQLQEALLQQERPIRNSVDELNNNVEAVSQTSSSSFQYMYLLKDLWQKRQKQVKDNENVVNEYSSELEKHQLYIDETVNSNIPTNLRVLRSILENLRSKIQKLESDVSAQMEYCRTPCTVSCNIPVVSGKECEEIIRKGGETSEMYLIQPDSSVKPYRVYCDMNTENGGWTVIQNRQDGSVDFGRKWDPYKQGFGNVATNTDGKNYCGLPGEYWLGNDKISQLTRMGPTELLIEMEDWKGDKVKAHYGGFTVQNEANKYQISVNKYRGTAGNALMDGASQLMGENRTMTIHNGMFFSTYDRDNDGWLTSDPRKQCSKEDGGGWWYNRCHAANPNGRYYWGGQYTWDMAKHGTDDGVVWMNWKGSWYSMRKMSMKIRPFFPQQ
T1 sequence 3: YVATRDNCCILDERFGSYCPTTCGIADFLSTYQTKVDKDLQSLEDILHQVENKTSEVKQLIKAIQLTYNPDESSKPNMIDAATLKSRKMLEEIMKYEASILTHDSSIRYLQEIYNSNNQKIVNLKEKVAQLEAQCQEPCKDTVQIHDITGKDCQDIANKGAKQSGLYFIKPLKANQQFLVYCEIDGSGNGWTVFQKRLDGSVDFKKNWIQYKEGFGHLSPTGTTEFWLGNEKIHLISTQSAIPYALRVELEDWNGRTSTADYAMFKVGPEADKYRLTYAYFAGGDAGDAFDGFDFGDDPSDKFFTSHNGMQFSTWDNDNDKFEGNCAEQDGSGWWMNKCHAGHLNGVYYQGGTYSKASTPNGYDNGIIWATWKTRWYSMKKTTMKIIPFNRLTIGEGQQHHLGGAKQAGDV
The assay is described as follows: pull-down from human serum on derivatized sepharose, SDS-PAGE and LC-MS/MS.

The target in assay [2] is T2, Native complement component C3, purified from human plasma (human, UniProt P01024 23-1663, intact thioester (native form)). Description: cell-based or functional assay.
Assay [3] addresses T3, C3b (human, UniProt P01024 23-667; P01024 749-1663, limits assumed).
T3 construct: domain: C3b; Prepared according to established protocols
Description: SPR (Biacore 2000), Efb-C immobilized, C3b as analyte, 1:1 Langmuir model; Kd=koff/kon.

The target of assay [4] is T3, C3b. The assay is described as follows: SPR kinetics, Efb-C immobilized. On the technique in general: Surface plasmon resonance follows binding to a sensor surface in real time, without labels.
Assay [5] deals with T4, Hydrolyzed C3 (C3(H2O)) (human, UniProt P01024 23-1663, thioester hydrolyzed).
T4 construct: mature; Prepared according to established protocols
The assay is described as follows: SPR kinetics, Efb-C immobilized.

The target of assay [6] is T4, Hydrolyzed C3 (C3(H2O)). The assay is described as follows: SPR (Biacore 2000), Efb-C immobilized, C3(H2O) as analyte, 1:1 Langmuir model.
Description: (§1) Surface Plasmon Resonance of Efb Binding to Components of the Complement System. All SPR experiments were performed on a Biacore X (ranking) or Biacore 2000 (kinetic profiling) biosensor at 25° C. using 10 mM PBS-T (10 mM sodium phosphate, pH 7.4, 150 mM NaCl, 0.005% Tween-20) as running buffer. […] A separate flow cell was only activated and deactivated, and served as reference surface. 200 nM solutions of the C3 fragments were injected for 3 min at a flow rate of 20 μl/min with a dissociation phase of 3 min. The Efb-C surface was regenerated with two consecutive 30 s pulses of 0.1% SDS and re-equilibrated in running buffer for 10 min. For the kinetic SPR studies, Efb-C was immobilized at lower density (200 RU) and the flow rate was kept at 30 μl/ml in order to avoid mass transport effects. C3 fragments were screened as threefold dilution series (67-0.09 nM; 200-0.09 nM for C3b) in running buffer with injection and dissociation phases of 5 and 10 min, respectively. In order to ensure full reconstitution of the surface after regeneration, the equilibration phase was increased to 30 min. Three buffer blanks were included in each analysis and their average signals were subtracted from the processed sample responses (double referencing). […] The equilibrium dissociation constant (Kd) was calculated from the kinetic parameters as Kd=koff/kₒₙ. […]
Assay [7] has as its target T2, Native complement component C3, …. The assay is described as follows: SPR (Biacore 2000), Efb-C immobilized, native C3 as analyte, surface heterogeneity model, primary site (~90% of the total binding).
Assay [8] deals with T5, Recombinant C3dg (E. coli, pET30 vector with S-tag) (human, UniProt P01024 955-1303).
T5 construct: domain: C3dg; not shown: S-tag from the pET30 vector
Description: SPR (Biacore 2000), Efb-C immobilized, C3dg as analyte, 1:1 Langmuir model; Kd=koff/kon.

For assay [9], the target named is T3, C3b. Description: SPR (Biacore 2000), Efb-C immobilized, C3b as analyte, 1:1 Langmuir model.
Description: as §1
Another assay deals with T6, C3c (human, UniProt P01024 23-667; P01024 749-954; P01024 1321-1663).
T6 construct: domain: C3c; Prepared according to established protocols; also called C3c fragment
The assay is described as follows: SPR, Efb-C immobilized, C3c injected, response divided by MW.

Assay [10] has as its target T5, Recombinant C3dg (E. coli, pET30 vector …). Description: SPR (Biacore 2000), Efb-C immobilized, C3dg as analyte, 1:1 Langmuir model.
Description: as §1
Assay [11] concerns the target T2, Native complement component C3, …. Description: SPR (Biacore 2000), Efb-C immobilized, native C3 as analyte, surface heterogeneity model, primary site; Kd=koff/kon.
Assay [12] addresses T4, Hydrolyzed C3 (C3(H2O)). The assay is described as follows: SPR (Biacore 2000), Efb-C immobilized, C3(H2O) as analyte, 1:1 Langmuir model; Kd=koff/kon.

T2 sequence (P01024 23-1663): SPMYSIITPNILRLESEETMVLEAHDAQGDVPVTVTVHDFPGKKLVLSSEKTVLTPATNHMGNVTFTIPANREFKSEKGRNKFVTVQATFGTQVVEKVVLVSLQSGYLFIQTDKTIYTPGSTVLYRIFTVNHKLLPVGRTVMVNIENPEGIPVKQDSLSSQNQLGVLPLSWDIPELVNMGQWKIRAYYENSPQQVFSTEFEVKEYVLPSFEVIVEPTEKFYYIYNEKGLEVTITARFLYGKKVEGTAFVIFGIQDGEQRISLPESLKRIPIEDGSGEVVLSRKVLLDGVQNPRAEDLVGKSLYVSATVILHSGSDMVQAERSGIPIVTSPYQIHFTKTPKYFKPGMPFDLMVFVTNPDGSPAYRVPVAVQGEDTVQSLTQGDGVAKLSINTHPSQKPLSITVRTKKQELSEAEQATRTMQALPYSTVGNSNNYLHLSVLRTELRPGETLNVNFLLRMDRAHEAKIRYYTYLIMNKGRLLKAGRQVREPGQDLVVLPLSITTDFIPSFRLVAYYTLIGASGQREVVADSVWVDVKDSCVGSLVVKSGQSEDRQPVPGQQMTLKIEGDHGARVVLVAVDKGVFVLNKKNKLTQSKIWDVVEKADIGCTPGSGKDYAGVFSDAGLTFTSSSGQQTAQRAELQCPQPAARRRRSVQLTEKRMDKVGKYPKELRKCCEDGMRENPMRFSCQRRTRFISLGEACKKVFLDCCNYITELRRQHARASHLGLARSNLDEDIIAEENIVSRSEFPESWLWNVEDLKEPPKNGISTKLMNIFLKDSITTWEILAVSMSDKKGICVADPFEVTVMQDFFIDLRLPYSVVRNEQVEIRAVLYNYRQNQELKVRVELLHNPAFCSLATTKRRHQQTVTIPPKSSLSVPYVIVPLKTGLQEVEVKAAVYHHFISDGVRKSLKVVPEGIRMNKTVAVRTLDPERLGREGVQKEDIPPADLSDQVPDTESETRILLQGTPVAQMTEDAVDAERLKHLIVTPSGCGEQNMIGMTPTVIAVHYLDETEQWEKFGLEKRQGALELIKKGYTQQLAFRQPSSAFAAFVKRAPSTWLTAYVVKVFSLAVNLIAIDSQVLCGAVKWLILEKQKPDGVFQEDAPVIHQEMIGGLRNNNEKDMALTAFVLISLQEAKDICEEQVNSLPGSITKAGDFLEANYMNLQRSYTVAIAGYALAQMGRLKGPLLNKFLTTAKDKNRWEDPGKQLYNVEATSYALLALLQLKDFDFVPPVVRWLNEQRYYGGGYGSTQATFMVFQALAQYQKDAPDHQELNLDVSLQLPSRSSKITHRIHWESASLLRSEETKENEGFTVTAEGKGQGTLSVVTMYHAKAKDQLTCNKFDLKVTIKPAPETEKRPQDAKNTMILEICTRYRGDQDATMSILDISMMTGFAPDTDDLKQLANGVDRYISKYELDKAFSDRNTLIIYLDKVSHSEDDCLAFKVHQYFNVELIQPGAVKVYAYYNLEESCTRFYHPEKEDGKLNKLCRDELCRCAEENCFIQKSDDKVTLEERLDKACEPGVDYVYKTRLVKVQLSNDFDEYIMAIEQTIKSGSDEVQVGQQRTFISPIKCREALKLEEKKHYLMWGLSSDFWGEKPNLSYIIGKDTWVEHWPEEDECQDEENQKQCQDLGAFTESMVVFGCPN
T4 sequence (P01024 23-1663): as above
T5 sequence (P01024 955-1303): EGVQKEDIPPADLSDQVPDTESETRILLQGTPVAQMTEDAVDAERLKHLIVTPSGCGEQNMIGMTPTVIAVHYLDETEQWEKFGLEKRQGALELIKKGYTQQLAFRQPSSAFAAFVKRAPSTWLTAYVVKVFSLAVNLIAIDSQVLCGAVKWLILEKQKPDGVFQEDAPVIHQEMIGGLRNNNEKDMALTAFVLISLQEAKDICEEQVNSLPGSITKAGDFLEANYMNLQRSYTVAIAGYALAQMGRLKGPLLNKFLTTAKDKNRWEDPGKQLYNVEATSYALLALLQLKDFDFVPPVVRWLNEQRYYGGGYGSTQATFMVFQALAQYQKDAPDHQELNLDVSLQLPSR
T3 sequence (P01024 23-667 limits assumed, chain 1 of 2): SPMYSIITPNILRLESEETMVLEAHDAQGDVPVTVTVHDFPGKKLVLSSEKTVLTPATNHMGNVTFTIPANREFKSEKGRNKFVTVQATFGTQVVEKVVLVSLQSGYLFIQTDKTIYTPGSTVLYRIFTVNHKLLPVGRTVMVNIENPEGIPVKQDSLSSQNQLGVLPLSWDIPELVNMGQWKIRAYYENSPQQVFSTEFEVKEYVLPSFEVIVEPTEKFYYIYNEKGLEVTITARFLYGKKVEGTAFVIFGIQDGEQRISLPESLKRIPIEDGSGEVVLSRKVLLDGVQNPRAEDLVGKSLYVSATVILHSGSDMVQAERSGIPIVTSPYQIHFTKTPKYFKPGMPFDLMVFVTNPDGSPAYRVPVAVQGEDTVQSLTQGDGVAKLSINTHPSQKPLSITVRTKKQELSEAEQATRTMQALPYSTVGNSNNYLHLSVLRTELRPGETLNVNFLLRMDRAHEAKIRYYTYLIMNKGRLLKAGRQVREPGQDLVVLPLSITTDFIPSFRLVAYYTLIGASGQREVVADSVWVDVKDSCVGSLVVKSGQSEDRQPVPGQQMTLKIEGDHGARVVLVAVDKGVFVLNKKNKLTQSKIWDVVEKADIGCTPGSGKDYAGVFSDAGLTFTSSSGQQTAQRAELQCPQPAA
T3 sequence (P01024 749-1663 limits assumed, chain 2 of 2): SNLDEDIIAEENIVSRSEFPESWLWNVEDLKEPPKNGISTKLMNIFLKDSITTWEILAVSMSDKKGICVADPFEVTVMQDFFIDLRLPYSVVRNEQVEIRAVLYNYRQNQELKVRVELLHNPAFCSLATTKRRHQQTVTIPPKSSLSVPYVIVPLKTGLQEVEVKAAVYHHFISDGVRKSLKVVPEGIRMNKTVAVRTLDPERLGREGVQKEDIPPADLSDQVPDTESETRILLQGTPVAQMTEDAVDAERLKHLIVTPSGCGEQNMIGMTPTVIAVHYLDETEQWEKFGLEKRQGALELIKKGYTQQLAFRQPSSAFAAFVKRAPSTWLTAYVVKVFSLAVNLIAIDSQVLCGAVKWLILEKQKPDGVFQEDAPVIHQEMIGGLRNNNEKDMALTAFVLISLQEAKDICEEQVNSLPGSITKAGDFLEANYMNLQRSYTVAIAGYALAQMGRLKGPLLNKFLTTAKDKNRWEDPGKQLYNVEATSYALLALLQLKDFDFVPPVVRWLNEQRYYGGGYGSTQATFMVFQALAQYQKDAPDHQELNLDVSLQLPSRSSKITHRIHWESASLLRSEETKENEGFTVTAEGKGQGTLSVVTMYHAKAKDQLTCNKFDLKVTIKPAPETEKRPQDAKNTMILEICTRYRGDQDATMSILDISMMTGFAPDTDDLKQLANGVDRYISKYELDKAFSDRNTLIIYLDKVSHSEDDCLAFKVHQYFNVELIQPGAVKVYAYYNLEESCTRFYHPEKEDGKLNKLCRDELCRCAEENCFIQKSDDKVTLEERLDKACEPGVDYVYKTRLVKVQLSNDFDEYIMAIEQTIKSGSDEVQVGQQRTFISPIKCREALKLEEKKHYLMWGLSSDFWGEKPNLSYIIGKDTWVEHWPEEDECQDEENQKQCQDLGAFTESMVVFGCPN
T6 sequence (P01024 23-667 limits assumed, chain 1 of 3): as the sequence (P01024 23-667 limits assumed, chain 1 of 2) above
T6 sequence (P01024 749-954 limits assumed, chain 2 of 3): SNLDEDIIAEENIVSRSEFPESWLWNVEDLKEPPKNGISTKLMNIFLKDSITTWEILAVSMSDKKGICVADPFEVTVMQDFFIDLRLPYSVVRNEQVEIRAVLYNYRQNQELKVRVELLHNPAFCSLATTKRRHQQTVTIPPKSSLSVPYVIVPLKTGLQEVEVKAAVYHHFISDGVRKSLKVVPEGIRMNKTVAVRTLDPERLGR
T6 sequence (P01024 1321-1663 limits assumed, chain 3 of 3): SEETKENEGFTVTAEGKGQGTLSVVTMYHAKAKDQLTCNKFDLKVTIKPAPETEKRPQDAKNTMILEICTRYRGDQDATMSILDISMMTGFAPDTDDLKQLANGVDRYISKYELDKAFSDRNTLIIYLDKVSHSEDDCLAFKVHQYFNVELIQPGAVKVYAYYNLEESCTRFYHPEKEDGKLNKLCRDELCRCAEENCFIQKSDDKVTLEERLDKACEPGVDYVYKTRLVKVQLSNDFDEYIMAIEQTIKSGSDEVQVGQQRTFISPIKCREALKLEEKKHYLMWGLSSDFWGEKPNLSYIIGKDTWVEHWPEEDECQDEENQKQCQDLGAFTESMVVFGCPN

B1: SAV1155/Ehp (Efb Homologous Protein), recombinant mature form, S. aureus strain Mu50 (other)
chain: QTKNVEAAKKYDQYQTNFKKQVNKKVVDAQKAVNLFKRTRTVATHRKAQRAVNLIHFQHSYEKKKLQRQIDLVLKYNTLK
notes: A recombinant form corresponding to the predicted mature protein
Consider B1, for which, in assay [1], the binding result is “no binding (tested: 1:100 dilution of human serum)”. For the same molecule, in [2], the “IC50, inhibition of classical activation of the complement pathway (ELISA detecting fixed C3b to Ag-Ab complex)” value was 590 nM; the “classical pathway inhibition relative to Efb, on a molar basis” value is ~2 fold; the “classical pathway inhibition relative to Efb-C, on a molar basis” value was ~50 fold.

B2: Extracellular fibrinogen-binding protein (Efb), recombinant full-length, S. aureus strain Mu50 (other)
chain: ASEGYGPREKKPVSINHNIVEYNDGTFKYQSRPKFNSTPKYIKFKHDYNILEFNDGTFEYGARPQFNKPAAKTDATIKKEQKLIQAQNLVREFEKTHTVSAHRKAQKAVNLVSFEYKVKKMVLQERIDNVLKQGLVR
As for B2, in [2], the “IC50, inhibition of the alternative pathway of complement activation (ELISA of C3b deposition, human serum)” value is ~560 nM and the “molar excess over C3 needed to reach an IC50 concentration, classical pathway” value turned out to be 50 fold molar excess over C3.

B3: Efb-C, C-terminal C3-binding domain of Efb from S. aureus strain Mu50 (other)
chain: FNKPAAKTDATIKKEQKLIQAQNLVREFEKTHTVSAHRKAQKAVNLVSFEYKVKKMVLQERIDNVLKQGLVR
notes: Monomer in solution; also called wild-type Efb-C
For the molecule B3, the dissociation constant (Kd) with C3b [3] amounted to 8.8 nM; in assay [8] it was 0.8 nM; in [11], 2.8 nM; with Hydrolyzed C3 (C3(H2O)) [12], 1.9 nM. In the assay with C3b [4], the “fold decrease in affinity compared to native C3 and C3(H2O)” value was ~3 fold. Also, the “fold difference in affinity to C3dg” value in the assay with C3b [4] was ~10 fold. Further, in the assay with Hydrolyzed C3 (C3(H2O)) [5], the “dissociation rate relative to that of native C3” value was > 70 % greater. Moreover, the off-rate constant (koff) with Hydrolyzed C3 (C3(H2O)) [6] is 0.000169 s⁻¹; in assay [7] it was 9.9e-05 s⁻¹; with C3b [9], 0.000209 s⁻¹; in [10], 0.000218 s⁻¹. Also, the on-rate constant (kon) was found to be 88900 M⁻¹ s⁻¹ in the assay with Hydrolyzed C3 (C3(H2O)) [6], 36000 M⁻¹ s⁻¹ in [7], 23900 M⁻¹ s⁻¹ with C3b [9] and 284000 M⁻¹ s⁻¹ in [10]. The binding result in [1] is recorded as “no binding (tested: 1:100 dilution of human serum)”; with C3c, “no binding (tested: 200 nM)”. Moreover, the “IC50, inhibition of the alternative pathway of complement activation (ELISA of C3b deposition, human serum)” value in assay [2] is ~410 nM.
